Measurements from article PMC10961335.

Molecular target: MGF505-4R fused to NanoLuciferase fragment N1 (pDEST-N2H-N1) (African swine fever virus, Georgia 2007/1 strain)
Experiment: split reporter (BiFC, NanoBiT)

“swine TRAF3 fused to NanoLuciferase fragment N2 (pDEST-N2H-N2) (natural protein)” showed a luminescence score (fold increase over N1-MGF505-4R with empty N2 vector) of 8.5 fold.
